Reference: paper PMC3645317

Target: gHΔTM-Fc/gL (Kaposi's sarcoma-associated herpesvirus (KSHV))

Chain of solEphA2-Fc (P29317 25-534): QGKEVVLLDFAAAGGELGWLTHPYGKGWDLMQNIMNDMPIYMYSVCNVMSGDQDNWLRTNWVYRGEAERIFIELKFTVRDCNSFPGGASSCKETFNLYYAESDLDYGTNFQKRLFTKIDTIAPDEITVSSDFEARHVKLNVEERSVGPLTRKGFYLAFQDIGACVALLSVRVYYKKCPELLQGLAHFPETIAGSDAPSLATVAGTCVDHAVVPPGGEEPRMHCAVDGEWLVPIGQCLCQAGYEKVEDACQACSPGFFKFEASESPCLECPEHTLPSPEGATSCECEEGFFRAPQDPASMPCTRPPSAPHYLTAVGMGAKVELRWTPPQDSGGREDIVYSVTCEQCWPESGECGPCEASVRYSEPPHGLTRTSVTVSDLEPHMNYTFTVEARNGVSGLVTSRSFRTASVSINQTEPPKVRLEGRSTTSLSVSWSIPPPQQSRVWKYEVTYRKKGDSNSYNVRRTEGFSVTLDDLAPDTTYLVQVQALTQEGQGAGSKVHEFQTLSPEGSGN

**Q.** With “solEphA2-Fc (from UniProt P29317-1 25-534) (Fc fusion)” as the substance, how does the inhibition of KSHV infection of 293T cells by solEphA2-Fc at 2 µg/ml read?
**A.** The inhibition of KSHV infection of 293T cells by solEphA2-Fc at 2 µg/ml was 80%.
